In patent US20130045895A1 (published 2013):
Changes are numbered by the printed parent chain. In names and notes the source's numbering stands.

Columns and labels:
[1] = biological target: Protein L (Peptostreptococcus magnus); test: BIAcore 3000, over Protein L (~500-700 RU)
[2] = biological target: Protein L (Peptostreptococcus magnus); test: BIAcore 3000, over Protein L; statistic over the plates analysed
[3] = biological target: the molecule itself; test: analytical ultracentrifugation (sedimentation equilibrium), self-association
Method: In the present examples, three 6-channel equilibrium cells were loaded with 9 protein solutions made by diluting the stock sample 10-, 20-, 30-, 150-, 200-, 300-, 400-, 500, and 600-fold (a range from 540 to 90 μg/ml). Each sample channel was loaded with 120 μl of protein solution and the reference channels were loaded with 125 μl of Dulbecco's phosphate-buffered saline (DPBS) dilution buffer. These cells were then loaded into an AN90-TI rotor and placed into a Beckman Coulter ProteomeLab XL-1 analytical centrifuge equipped with both absorbance and Rayleigh interference (refractive index detection) optical systems. Absorbance scans for the three highest concentrations were recorded at 280 nm; for the lowest concentrations 230 nm was used. The temperature was set at 25° C.

Human Serum Albumin [4] = biological target: T1, Human Serum Albumin (human, UniProt P02768 25-609); test: see Table 2
T1 construct: also called HSA; antigen

Human Serum Albumin [5] = biological target: T1, Human Serum Albumin; test: BIAcore, purified protein over HSA (559 RU)
Human Serum Albumin [6] = biological target: T1, Human Serum Albumin; test: BIAcore, supernatant over immobilised HSA (6036 RU);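 note: expressed culture supernatants of mutant clones diluted 1:1 in HBS-EP buffer and screened for binding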
Method: Screening of expressed supernatants for Protein L and HSA binding: Mutant clones were picked into a 96 well plate format and expressed in 1 mL 2×TY 0.1 mg/ml carbenicillin supplemented with OnEx solutions 1, 2 and 3 according to the manufacturer's instructions (Novagen). Cultures were grown at 30° C. for 3 days at 950 rpm high humidity in an InforsHT shaker. Cells were pelleted by centrifugation (4.5 k in a bench top Sorvall centrifuge for 30 mins) and 75 μL of the supernatant added to an equal volume of HBS-EP buffer (GE Healthcare).

Human Serum Albumin [7] = biological target: T1, Human Serum Albumin; test: SPR (Biacore 2000), purified dAb over HSA (559 RU) on CM5 chip
From the text: (§1) The data analysis followed routine and established algorithms using the instrument's software (Bia-evaluation 3.2 RC1).

Human Serum Albumin [8] = biological target: T1, Human Serum Albumin; test: as above; remark: listed apart in the source
From the text: as §1

Human Serum Albumin [9] = biological target: T1, Human Serum Albumin; test: SPR (Biacore 2000), purified dAb over HSA (559 RU) on CM5 chip; Table 13 cell, backed by its kon and koff
From the text: as §1

T1 sequence (P02768 25-609 limits assumed): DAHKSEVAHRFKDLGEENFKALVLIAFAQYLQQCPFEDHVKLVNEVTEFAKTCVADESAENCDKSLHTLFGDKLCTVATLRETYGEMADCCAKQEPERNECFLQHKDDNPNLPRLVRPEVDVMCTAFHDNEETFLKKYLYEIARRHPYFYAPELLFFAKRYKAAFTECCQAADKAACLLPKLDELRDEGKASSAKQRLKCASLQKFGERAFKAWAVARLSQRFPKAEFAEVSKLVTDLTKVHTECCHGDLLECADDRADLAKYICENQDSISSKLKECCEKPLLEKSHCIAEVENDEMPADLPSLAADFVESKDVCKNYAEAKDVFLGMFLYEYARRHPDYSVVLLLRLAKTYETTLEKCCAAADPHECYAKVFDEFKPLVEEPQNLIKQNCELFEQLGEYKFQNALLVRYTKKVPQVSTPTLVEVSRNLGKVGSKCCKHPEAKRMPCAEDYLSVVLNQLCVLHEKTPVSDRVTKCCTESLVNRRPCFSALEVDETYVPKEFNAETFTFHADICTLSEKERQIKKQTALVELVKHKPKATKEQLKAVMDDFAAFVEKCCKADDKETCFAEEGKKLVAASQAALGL

B1: DOM4-130-54 (protein)
VL: DIQMTQSPSSLSASVGDRVTITCRASQDIYLNLDWYQQKPGKAPKLLINFGSELQSGVPSRFSGSGYGTDFTLTISSLQPEDFATYYCQPSFYFPYTFGQGTKVEIKRA
% B5 (proportion of dAb bound at 5 min of dissociation) [1]: 4% | % B5, 25% Percentile [2]: 3.9% | % B5, 75% Percentile [2]: 4% | % B5, Maximum [2]: 4% | % B5, Mean [2]: 3.9% | % B5, Median [2]: 4% | % B5, Minimum [2]: 3.6%

B2: DOM7h-8 (other)
VL: DIQMTQSPSSLSASVGDRVTITCRASQSISSYLNWYQQKPGKAPKLLIYRNSPLQSGVPSRFSGSGSGTDFTLTISSLQPEDFATYYCQQTYRVPPTFGQGTKVEIKR
notes: also called DOM7h-8 parent molecule; SD ctrl
Kd [3]: 120 nM | binding result (Human Serum Albumin [4]): binds

B3: DOM7h-8 L46D (other)
VL: B2 VL with L46D
binding result (Human Serum Albumin [5]): binds

B4: DOM7h-8 Y87L (other)
VL: B2 VL with Y87L
binding result (Human Serum Albumin [5]): binds

B5: DOM7h-14 (other)
VL: DIQMTQSPSSLSASVGDRVTITCRASQWIGSQLSWYQQKPGKAPKLLIMWRSSLQSGVPSRFSGSGSGTDFTLTISSLQPEDFATYYCAQGAALPRTFGQGTKVEIKR
notes: also called 7h14 wt
Kd [3]: 250000 nM | binding result (Human Serum Albumin [6]): binds

B6: DOM7h-14-10 A43I (other, name in Kabat numbering)
VL: B5 VL with A43I, A92L, A93R, L94H, R96K
notes: also called A43I mutant of DOM7h-14-10
fold improvement in antigen affinity over DOM7h-14-10 (Human Serum Albumin [7]): 2 fold | Kd (Human Serum Albumin [8]): 13.1 nM | koff (Human Serum Albumin [8]): 0.012 s⁻¹ | kon (Human Serum Albumin [8]): 890000 M⁻¹ s⁻¹

B7: DOM7h-11-15 (other)
VL: DIQMTQSPSSLSASVGDRVTITCRASRPIGTMLSWYQQKPGKAPKLLILAFSRLQSGVPSRFSGSGSGTDFTLTISSLQPEDFATYYCAQAGTHPTTFGQGTKVEIKR
notes: also called DOM7h-11-15 parent
Kd (Human Serum Albumin [9]): 384 nM | koff (Human Serum Albumin [8]): 0.0045 s⁻¹ | kon (Human Serum Albumin [8]): 12000 M⁻¹ s⁻¹

B8: DOM7h-11-15 A43I (other, name in Kabat numbering)
VL: B7 VL with A43I
notes: also called DOM7h-11-15 A43I mutant
fold improvement in antigen affinity over the DOM7h-11-15 parent (Human Serum Albumin [7]): 1000 fold | Kd (Human Serum Albumin [8]): 6.4 nM | koff (Human Serum Albumin [8]): 0.0049 s⁻¹ | kon (Human Serum Albumin [8]): 770000 M⁻¹ s⁻¹
